In patent publication US20150344570A1 (published 2015) one finds Ho/Con_2aH data, which are given here for 21 molecules.

To fix the notation:
T1: FcγRIIa H (FcγRIIa type H, His at position 131), extracellular domain with C-terminal His tag (human, UniProt P12318 34-217)
T1 construct: extracellular domain; also called FcgRIIa H; 2aH
T1 sequence (looked up): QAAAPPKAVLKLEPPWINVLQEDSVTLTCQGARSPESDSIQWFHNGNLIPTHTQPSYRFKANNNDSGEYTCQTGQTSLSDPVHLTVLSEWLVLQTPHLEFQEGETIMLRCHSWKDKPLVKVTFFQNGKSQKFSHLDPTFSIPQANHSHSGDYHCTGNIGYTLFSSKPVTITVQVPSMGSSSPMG

B1: GpH7-B3 variant L328_02A/GpL16-k0 (antibody, human IgG1, kappa)
heavy: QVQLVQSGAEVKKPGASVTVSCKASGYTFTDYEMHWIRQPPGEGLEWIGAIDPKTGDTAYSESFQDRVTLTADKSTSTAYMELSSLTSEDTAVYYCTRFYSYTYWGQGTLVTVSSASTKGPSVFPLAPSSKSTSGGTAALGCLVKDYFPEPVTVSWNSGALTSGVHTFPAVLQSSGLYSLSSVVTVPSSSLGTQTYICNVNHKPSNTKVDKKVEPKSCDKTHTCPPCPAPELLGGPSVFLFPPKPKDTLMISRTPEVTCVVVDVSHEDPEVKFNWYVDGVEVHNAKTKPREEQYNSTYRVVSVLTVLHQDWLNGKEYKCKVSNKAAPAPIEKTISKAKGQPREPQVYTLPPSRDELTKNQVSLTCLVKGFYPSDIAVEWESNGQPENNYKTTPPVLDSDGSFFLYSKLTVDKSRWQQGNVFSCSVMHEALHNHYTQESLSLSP
light: DIVMTQSPLSLPVTPGEPASISCQASESLVHSNRNTYLHWYLQKPGQSPQLLIYKVSNRFSGVPDRFSGSGSGTDFTLKISRVEAEDVGVYYCSQNTHVPPTFGQGTKVEIERTVAAPSVFIFPPSDEQLKSGTASVVCLLNNFYPREAKVQWKVDNALQSGNSQESVTEQDSKDSTYSLSSTLTLSKADYEKHKVYACEVTHQGLSSPVTKSFNRGEC
notes: both H chains mutated; also called Ho Ab
B2: GpH7-B3 variant S239_09D/GpL16-k0 (antibody, human IgG1, kappa)
heavy: not shown
light: DIVMTQSPLSLPVTPGEPASISCQASESLVHSNRNTYLHWYLQKPGQSPQLLIYKVSNRFSGVPDRFSGSGSGTDFTLKISRVEAEDVGVYYCSQNTHVPPTFGQGTKVEIERTVAAPSVFIFPPSDEQLKSGTASVVCLLNNFYPREAKVQWKVDNALQSGNSQESVTEQDSKDSTYSLSSTLTLSKADYEKHKVYACEVTHQGLSSPVTKSFNRGEC
notes: as for B1
B3: GpH7-B3 variant P271_01G/GpL16-k0 (antibody, human IgG1, kappa)
heavy: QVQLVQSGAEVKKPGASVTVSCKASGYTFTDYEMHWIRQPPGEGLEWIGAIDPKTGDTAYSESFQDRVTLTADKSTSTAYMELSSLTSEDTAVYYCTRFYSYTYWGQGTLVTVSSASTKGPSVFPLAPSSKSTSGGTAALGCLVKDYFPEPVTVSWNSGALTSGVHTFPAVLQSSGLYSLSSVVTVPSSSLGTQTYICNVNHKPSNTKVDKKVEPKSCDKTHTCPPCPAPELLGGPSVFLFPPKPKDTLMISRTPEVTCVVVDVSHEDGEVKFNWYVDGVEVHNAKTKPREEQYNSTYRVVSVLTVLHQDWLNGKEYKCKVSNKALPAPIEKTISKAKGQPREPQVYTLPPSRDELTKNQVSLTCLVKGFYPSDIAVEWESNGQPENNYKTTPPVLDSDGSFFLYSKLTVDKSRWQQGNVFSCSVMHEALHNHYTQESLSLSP
light: DIVMTQSPLSLPVTPGEPASISCQASESLVHSNRNTYLHWYLQKPGQSPQLLIYKVSNRFSGVPDRFSGSGSGTDFTLKISRVEAEDVGVYYCSQNTHVPPTFGQGTKVEIERTVAAPSVFIFPPSDEQLKSGTASVVCLLNNFYPREAKVQWKVDNALQSGNSQESVTEQDSKDSTYSLSSTLTLSKADYEKHKVYACEVTHQGLSSPVTKSFNRGEC
notes: as for B1
B4: GpH7-B3 variant S324_10E/GpL16-k0 (antibody, human IgG1, kappa)
heavy: not shown
light: DIVMTQSPLSLPVTPGEPASISCQASESLVHSNRNTYLHWYLQKPGQSPQLLIYKVSNRFSGVPDRFSGSGSGTDFTLKISRVEAEDVGVYYCSQNTHVPPTFGQGTKVEIERTVAAPSVFIFPPSDEQLKSGTASVVCLLNNFYPREAKVQWKVDNALQSGNSQESVTEQDSKDSTYSLSSTLTLSKADYEKHKVYACEVTHQGLSSPVTKSFNRGEC
notes: as for B1
B5: GpH7-B3 variant S324_20W/GpL16-k0 (antibody, human IgG1, kappa)
heavy: not shown
light: DIVMTQSPLSLPVTPGEPASISCQASESLVHSNRNTYLHWYLQKPGQSPQLLIYKVSNRFSGVPDRFSGSGSGTDFTLKISRVEAEDVGVYYCSQNTHVPPTFGQGTKVEIERTVAAPSVFIFPPSDEQLKSGTASVVCLLNNFYPREAKVQWKVDNALQSGNSQESVTEQDSKDSTYSLSSTLTLSKADYEKHKVYACEVTHQGLSSPVTKSFNRGEC
notes: as for B1
B6: GpH7-B3 variant Q295_07I/GpL16-k0 (antibody, human IgG1, kappa)
heavy: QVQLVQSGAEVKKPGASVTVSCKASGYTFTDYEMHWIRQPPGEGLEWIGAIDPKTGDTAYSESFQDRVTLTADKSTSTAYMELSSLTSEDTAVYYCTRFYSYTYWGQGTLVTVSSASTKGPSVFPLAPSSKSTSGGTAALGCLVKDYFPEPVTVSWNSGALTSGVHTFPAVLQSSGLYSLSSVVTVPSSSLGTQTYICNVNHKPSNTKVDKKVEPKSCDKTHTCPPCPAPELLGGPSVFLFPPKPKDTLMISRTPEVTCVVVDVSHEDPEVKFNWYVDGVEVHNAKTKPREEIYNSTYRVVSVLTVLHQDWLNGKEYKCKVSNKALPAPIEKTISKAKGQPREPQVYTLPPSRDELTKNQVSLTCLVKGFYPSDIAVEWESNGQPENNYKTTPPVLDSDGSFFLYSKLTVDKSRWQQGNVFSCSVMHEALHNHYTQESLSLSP
light: DIVMTQSPLSLPVTPGEPASISCQASESLVHSNRNTYLHWYLQKPGQSPQLLIYKVSNRFSGVPDRFSGSGSGTDFTLKISRVEAEDVGVYYCSQNTHVPPTFGQGTKVEIERTVAAPSVFIFPPSDEQLKSGTASVVCLLNNFYPREAKVQWKVDNALQSGNSQESVTEQDSKDSTYSLSSTLTLSKADYEKHKVYACEVTHQGLSSPVTKSFNRGEC
notes: as for B1
B7: GpH7-B3 variant T335_07I/GpL16-k0 (antibody, human IgG1, kappa)
heavy: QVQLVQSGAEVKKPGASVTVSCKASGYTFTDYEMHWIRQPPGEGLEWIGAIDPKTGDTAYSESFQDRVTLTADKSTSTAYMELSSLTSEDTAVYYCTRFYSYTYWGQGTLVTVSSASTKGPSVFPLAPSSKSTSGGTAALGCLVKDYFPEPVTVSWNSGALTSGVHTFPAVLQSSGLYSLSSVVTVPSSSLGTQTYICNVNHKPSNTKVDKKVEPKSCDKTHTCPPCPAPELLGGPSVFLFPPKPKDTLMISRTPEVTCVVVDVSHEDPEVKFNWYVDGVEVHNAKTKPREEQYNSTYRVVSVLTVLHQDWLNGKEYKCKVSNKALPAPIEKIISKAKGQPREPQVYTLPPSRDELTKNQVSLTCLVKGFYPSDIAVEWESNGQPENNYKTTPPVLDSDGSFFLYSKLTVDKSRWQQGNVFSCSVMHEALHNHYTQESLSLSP
light: DIVMTQSPLSLPVTPGEPASISCQASESLVHSNRNTYLHWYLQKPGQSPQLLIYKVSNRFSGVPDRFSGSGSGTDFTLKISRVEAEDVGVYYCSQNTHVPPTFGQGTKVEIERTVAAPSVFIFPPSDEQLKSGTASVVCLLNNFYPREAKVQWKVDNALQSGNSQESVTEQDSKDSTYSLSSTLTLSKADYEKHKVYACEVTHQGLSSPVTKSFNRGEC
notes: as for B1
B8: GpH7-B3 variant S267_02A/GpL16-k0 (antibody, human IgG1, kappa)
heavy: not shown
light: DIVMTQSPLSLPVTPGEPASISCQASESLVHSNRNTYLHWYLQKPGQSPQLLIYKVSNRFSGVPDRFSGSGSGTDFTLKISRVEAEDVGVYYCSQNTHVPPTFGQGTKVEIERTVAAPSVFIFPPSDEQLKSGTASVVCLLNNFYPREAKVQWKVDNALQSGNSQESVTEQDSKDSTYSLSSTLTLSKADYEKHKVYACEVTHQGLSSPVTKSFNRGEC
notes: as for B1
B9: GpH7-B3 variant S324_02A/GpL16-k0 (antibody, human IgG1, kappa)
heavy: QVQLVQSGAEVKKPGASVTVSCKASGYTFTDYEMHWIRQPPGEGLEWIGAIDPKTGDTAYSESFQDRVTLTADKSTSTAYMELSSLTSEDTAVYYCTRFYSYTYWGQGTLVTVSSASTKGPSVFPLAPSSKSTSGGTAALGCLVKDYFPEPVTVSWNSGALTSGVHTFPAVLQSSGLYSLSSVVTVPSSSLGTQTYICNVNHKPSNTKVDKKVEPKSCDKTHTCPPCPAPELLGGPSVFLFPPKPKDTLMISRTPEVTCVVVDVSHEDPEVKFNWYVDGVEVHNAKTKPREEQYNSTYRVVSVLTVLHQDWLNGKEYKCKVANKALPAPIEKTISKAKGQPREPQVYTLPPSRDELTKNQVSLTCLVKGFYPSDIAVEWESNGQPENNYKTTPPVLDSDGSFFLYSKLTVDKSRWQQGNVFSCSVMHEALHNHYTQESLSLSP
light: DIVMTQSPLSLPVTPGEPASISCQASESLVHSNRNTYLHWYLQKPGQSPQLLIYKVSNRFSGVPDRFSGSGSGTDFTLKISRVEAEDVGVYYCSQNTHVPPTFGQGTKVEIERTVAAPSVFIFPPSDEQLKSGTASVVCLLNNFYPREAKVQWKVDNALQSGNSQESVTEQDSKDSTYSLSSTLTLSKADYEKHKVYACEVTHQGLSSPVTKSFNRGEC
notes: as for B1
B10: GpH7-B3 variant S337_10E/GpL16-k0 (antibody, human IgG1, kappa)
heavy: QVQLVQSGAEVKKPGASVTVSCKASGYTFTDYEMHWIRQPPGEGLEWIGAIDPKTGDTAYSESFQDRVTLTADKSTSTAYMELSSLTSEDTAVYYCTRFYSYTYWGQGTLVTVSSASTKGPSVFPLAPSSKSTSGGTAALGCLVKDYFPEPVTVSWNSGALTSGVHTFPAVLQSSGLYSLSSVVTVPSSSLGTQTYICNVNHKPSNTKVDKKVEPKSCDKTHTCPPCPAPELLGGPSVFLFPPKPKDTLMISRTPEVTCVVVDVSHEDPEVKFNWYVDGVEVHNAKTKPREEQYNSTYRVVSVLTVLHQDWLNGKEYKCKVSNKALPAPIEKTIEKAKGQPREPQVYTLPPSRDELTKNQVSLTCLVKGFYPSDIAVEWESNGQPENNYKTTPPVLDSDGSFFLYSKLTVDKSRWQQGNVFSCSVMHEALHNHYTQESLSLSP
light: DIVMTQSPLSLPVTPGEPASISCQASESLVHSNRNTYLHWYLQKPGQSPQLLIYKVSNRFSGVPDRFSGSGSGTDFTLKISRVEAEDVGVYYCSQNTHVPPTFGQGTKVEIERTVAAPSVFIFPPSDEQLKSGTASVVCLLNNFYPREAKVQWKVDNALQSGNSQESVTEQDSKDSTYSLSSTLTLSKADYEKHKVYACEVTHQGLSSPVTKSFNRGEC
notes: as for B1
B11: GpH7-B3 variant S337_14T/GpL16-k0 (antibody, human IgG1, kappa)
heavy: not shown
light: DIVMTQSPLSLPVTPGEPASISCQASESLVHSNRNTYLHWYLQKPGQSPQLLIYKVSNRFSGVPDRFSGSGSGTDFTLKISRVEAEDVGVYYCSQNTHVPPTFGQGTKVEIERTVAAPSVFIFPPSDEQLKSGTASVVCLLNNFYPREAKVQWKVDNALQSGNSQESVTEQDSKDSTYSLSSTLTLSKADYEKHKVYACEVTHQGLSSPVTKSFNRGEC
notes: as for B1
B12: GpH7-B3 variant T335_01G/GpL16-k0 (antibody, human IgG1, kappa)
heavy: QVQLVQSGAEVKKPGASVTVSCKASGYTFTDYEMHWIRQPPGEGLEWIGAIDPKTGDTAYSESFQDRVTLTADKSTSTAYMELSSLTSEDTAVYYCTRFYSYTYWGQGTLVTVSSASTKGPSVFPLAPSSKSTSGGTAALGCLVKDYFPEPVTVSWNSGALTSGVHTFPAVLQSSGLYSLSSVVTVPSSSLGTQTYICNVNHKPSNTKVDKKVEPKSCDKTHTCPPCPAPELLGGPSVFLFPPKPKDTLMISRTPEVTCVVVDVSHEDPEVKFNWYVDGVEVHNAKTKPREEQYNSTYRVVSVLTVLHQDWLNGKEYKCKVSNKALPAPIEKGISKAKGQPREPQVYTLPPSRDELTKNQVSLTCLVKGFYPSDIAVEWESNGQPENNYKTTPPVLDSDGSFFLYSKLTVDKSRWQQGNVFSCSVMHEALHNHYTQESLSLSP
light: DIVMTQSPLSLPVTPGEPASISCQASESLVHSNRNTYLHWYLQKPGQSPQLLIYKVSNRFSGVPDRFSGSGSGTDFTLKISRVEAEDVGVYYCSQNTHVPPTFGQGTKVEIERTVAAPSVFIFPPSDEQLKSGTASVVCLLNNFYPREAKVQWKVDNALQSGNSQESVTEQDSKDSTYSLSSTLTLSKADYEKHKVYACEVTHQGLSSPVTKSFNRGEC
notes: as for B1
B13: GpH7-B3 variant S324_09D/GpL16-k0 (antibody, human IgG1, kappa)
heavy: not shown
light: DIVMTQSPLSLPVTPGEPASISCQASESLVHSNRNTYLHWYLQKPGQSPQLLIYKVSNRFSGVPDRFSGSGSGTDFTLKISRVEAEDVGVYYCSQNTHVPPTFGQGTKVEIERTVAAPSVFIFPPSDEQLKSGTASVVCLLNNFYPREAKVQWKVDNALQSGNSQESVTEQDSKDSTYSLSSTLTLSKADYEKHKVYACEVTHQGLSSPVTKSFNRGEC
notes: as for B1
B14: GpH7-B3 variant T335_10E/GpL16-k0 (antibody, human IgG1, kappa)
heavy: not shown
light: DIVMTQSPLSLPVTPGEPASISCQASESLVHSNRNTYLHWYLQKPGQSPQLLIYKVSNRFSGVPDRFSGSGSGTDFTLKISRVEAEDVGVYYCSQNTHVPPTFGQGTKVEIERTVAAPSVFIFPPSDEQLKSGTASVVCLLNNFYPREAKVQWKVDNALQSGNSQESVTEQDSKDSTYSLSSTLTLSKADYEKHKVYACEVTHQGLSSPVTKSFNRGEC
notes: as for B1
B15: GpH7-B3 variant S337_16H/GpL16-k0 (antibody, human IgG1, kappa)
heavy: not shown
light: DIVMTQSPLSLPVTPGEPASISCQASESLVHSNRNTYLHWYLQKPGQSPQLLIYKVSNRFSGVPDRFSGSGSGTDFTLKISRVEAEDVGVYYCSQNTHVPPTFGQGTKVEIERTVAAPSVFIFPPSDEQLKSGTASVVCLLNNFYPREAKVQWKVDNALQSGNSQESVTEQDSKDSTYSLSSTLTLSKADYEKHKVYACEVTHQGLSSPVTKSFNRGEC
notes: as for B1
B16: GpH7-B3 variant L328_14T/GpL16-k0 (antibody, human IgG1, kappa)
heavy: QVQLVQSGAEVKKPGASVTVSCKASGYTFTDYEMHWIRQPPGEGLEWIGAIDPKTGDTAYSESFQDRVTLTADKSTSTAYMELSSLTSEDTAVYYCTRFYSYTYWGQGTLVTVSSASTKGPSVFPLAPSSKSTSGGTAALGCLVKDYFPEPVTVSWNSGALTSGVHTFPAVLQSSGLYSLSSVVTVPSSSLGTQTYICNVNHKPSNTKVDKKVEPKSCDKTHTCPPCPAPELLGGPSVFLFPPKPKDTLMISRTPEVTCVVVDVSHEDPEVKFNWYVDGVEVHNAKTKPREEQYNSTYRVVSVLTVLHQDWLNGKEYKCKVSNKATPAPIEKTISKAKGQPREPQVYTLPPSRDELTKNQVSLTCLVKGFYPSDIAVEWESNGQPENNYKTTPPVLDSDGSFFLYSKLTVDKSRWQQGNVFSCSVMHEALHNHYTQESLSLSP
light: DIVMTQSPLSLPVTPGEPASISCQASESLVHSNRNTYLHWYLQKPGQSPQLLIYKVSNRFSGVPDRFSGSGSGTDFTLKISRVEAEDVGVYYCSQNTHVPPTFGQGTKVEIERTVAAPSVFIFPPSDEQLKSGTASVVCLLNNFYPREAKVQWKVDNALQSGNSQESVTEQDSKDSTYSLSSTLTLSKADYEKHKVYACEVTHQGLSSPVTKSFNRGEC
notes: as for B1
B17: GpH7-B3 variant Q295_05P/GpL16-k0 (antibody, human IgG1, kappa)
heavy: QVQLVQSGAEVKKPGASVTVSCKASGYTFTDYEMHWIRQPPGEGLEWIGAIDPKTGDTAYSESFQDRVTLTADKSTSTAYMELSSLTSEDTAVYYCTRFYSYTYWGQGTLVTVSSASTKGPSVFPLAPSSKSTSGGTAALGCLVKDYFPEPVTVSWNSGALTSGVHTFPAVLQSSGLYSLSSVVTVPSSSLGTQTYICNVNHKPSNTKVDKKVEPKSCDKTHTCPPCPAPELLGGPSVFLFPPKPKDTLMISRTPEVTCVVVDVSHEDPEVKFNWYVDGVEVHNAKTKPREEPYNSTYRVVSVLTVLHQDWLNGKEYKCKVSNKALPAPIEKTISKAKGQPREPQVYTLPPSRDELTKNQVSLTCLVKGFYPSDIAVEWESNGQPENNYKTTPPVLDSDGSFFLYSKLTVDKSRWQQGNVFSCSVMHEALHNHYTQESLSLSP
light: DIVMTQSPLSLPVTPGEPASISCQASESLVHSNRNTYLHWYLQKPGQSPQLLIYKVSNRFSGVPDRFSGSGSGTDFTLKISRVEAEDVGVYYCSQNTHVPPTFGQGTKVEIERTVAAPSVFIFPPSDEQLKSGTASVVCLLNNFYPREAKVQWKVDNALQSGNSQESVTEQDSKDSTYSLSSTLTLSKADYEKHKVYACEVTHQGLSSPVTKSFNRGEC
notes: as for B1
B18: GpH7-B3 variant L328_06M/GpL16-k0 (antibody, human IgG1, kappa)
heavy: not shown
light: DIVMTQSPLSLPVTPGEPASISCQASESLVHSNRNTYLHWYLQKPGQSPQLLIYKVSNRFSGVPDRFSGSGSGTDFTLKISRVEAEDVGVYYCSQNTHVPPTFGQGTKVEIERTVAAPSVFIFPPSDEQLKSGTASVVCLLNNFYPREAKVQWKVDNALQSGNSQESVTEQDSKDSTYSLSSTLTLSKADYEKHKVYACEVTHQGLSSPVTKSFNRGEC
notes: as for B1
B19: GpH7-B3 variant S324_06M/GpL16-k0 (antibody, human IgG1, kappa)
heavy: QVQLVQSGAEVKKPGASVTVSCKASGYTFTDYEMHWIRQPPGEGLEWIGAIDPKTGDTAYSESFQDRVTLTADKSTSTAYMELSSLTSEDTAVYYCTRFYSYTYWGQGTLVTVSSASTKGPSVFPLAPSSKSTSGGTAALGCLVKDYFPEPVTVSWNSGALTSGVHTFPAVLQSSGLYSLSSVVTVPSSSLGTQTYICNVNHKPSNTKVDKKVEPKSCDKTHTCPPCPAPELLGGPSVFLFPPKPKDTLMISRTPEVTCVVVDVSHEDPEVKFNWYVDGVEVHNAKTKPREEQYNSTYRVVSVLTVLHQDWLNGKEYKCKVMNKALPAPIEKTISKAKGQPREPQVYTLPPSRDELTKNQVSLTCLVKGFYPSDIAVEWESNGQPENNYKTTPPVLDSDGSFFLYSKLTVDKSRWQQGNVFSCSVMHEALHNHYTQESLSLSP
light: DIVMTQSPLSLPVTPGEPASISCQASESLVHSNRNTYLHWYLQKPGQSPQLLIYKVSNRFSGVPDRFSGSGSGTDFTLKISRVEAEDVGVYYCSQNTHVPPTFGQGTKVEIERTVAAPSVFIFPPSDEQLKSGTASVVCLLNNFYPREAKVQWKVDNALQSGNSQESVTEQDSKDSTYSLSSTLTLSKADYEKHKVYACEVTHQGLSSPVTKSFNRGEC
notes: as for B1
B20: GpH7-B3 variant L328_13S/GpL16-k0 (antibody, human IgG1, kappa)
heavy: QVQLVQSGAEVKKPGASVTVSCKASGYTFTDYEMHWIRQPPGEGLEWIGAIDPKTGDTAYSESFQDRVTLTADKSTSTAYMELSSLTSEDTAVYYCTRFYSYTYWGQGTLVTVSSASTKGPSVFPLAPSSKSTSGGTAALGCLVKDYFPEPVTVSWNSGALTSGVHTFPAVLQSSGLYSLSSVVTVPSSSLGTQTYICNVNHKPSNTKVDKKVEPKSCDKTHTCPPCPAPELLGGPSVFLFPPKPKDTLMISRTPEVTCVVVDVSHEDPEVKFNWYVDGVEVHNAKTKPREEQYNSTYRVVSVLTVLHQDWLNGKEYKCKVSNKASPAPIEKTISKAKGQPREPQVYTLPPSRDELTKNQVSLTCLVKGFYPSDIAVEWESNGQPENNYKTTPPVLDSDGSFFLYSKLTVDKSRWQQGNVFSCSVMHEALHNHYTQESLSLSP
light: DIVMTQSPLSLPVTPGEPASISCQASESLVHSNRNTYLHWYLQKPGQSPQLLIYKVSNRFSGVPDRFSGSGSGTDFTLKISRVEAEDVGVYYCSQNTHVPPTFGQGTKVEIERTVAAPSVFIFPPSDEQLKSGTASVVCLLNNFYPREAKVQWKVDNALQSGNSQESVTEQDSKDSTYSLSSTLTLSKADYEKHKVYACEVTHQGLSSPVTKSFNRGEC
notes: as for B1
B21: GpH7-B3 variant S337_09D/GpL16-k0 (antibody, human IgG1, kappa)
heavy: not shown
light: DIVMTQSPLSLPVTPGEPASISCQASESLVHSNRNTYLHWYLQKPGQSPQLLIYKVSNRFSGVPDRFSGSGSGTDFTLKISRVEAEDVGVYYCSQNTHVPPTFGQGTKVEIERTVAAPSVFIFPPSDEQLKSGTASVVCLLNNFYPREAKVQWKVDNALQSGNSQESVTEQDSKDSTYSLSSTLTLSKADYEKHKVYACEVTHQGLSSPVTKSFNRGEC
notes: as for B1

This experiment deals with T1, FcγRIIa H (FcγRIIa type H, His at …). Briefly: SPR Biacore, relative binding, GpH7-B3/GpL16-k0 (HoCon Ab)=100. For orientation: Surface plasmon resonance follows binding to a sensor surface in real time, without labels.
On to B1, for which the Ho/Con_2aH was 134 % of control. Regarding B2, the Ho/Con_2aH is 112 % of control. In the case of B3, the Ho/Con_2aH is 110 % of control. Regarding B4, the Ho/Con_2aH is 104 % of control. In the case of B5 it was 108 % of control. Then B6, with 108 % of control. Then B7, with 105 % of control; and B8, with 120 % of control; and B9, with 102 % of control. In the case of B10, the Ho/Con_2aH was 101 % of control. In the case of B11 it was 105 % of control; in that of B12, 101 % of control; in that of B13, 113 % of control. In the case of B14 it was 105 % of control; in that of B15, 102 % of control; in that of B16, 110 % of control.

In the case of B17, the Ho/Con_2aH is 106 % of control.

Take B18: the Ho/Con_2aH was 100 % of control.

In the case of B19, the Ho/Con_2aH was 123 % of control.

In the case of B20, the Ho/Con_2aH was 131 % of control. In the case of B21 it was 107 % of control.
